Measured values from patent publication US20200271647A1 (SEOUL NATIONAL UNIVERSITY HOSPITAL, published 2020).
Changes are numbered by the printed parent chain.

B1: VH5/Vk0 (antibody, V domains shown)
VH: QVQLVQSGAEVKKPGSSVKVSCQGSGYSFPTHWITWVRQAPGQGLEWMGTIDPTDSYNFYGPSFQGRVTITADSSTSTAYMELSSLRSEDTAVYYCARDGNYYDSRGYYYDTFDMWGQGTLVTVSS
VL: DIQMTQSPSFLSASVGDRVTITCRASQGISTYLAWYQQKPGTAPKLLIYSASTLESGVPSRFSGSGSGTDFTLTISSLQPEDSATYYCQQADSFPLTFGGGTKVEIK
notes: CDR-grafted variant of the IgG1-based anti-cMet antibody 1E4; also called anti-cMet candidate antibody VH5/Vk0
B2: VH4/Vk0 (antibody, V domains shown)
VH: B1 VH with V93M
VL: B1 VL
notes: CDR-grafted variant of the IgG1-based anti-cMet antibody 1E4; also called anti-cMet candidate antibody VH4/Vk0
B3: VH4/Vk2 (antibody, V domains shown)
VH: B1 VH with V93M
VL: B1 VL with F10S, T42K, S83F
notes: CDR-grafted variant of the IgG1-based anti-cMet antibody 1E4; also called anti-cMet candidate antibody VH4/Vk2
B4: VH5/Vk2 (antibody, V domains shown)
VH: B1 VH
VL: B1 VL with F10S, T42K, S83F
notes: CDR-grafted variant of the IgG1-based anti-cMet antibody 1E4; also called anti-cMet candidate antibody VH5/Vk2
B5: VH6/Vk0 (antibody, V domains shown)
VH: B1 VH with Q23K, G24A, S74K
VL: B1 VL
notes: CDR-grafted variant of the IgG1-based anti-cMet antibody 1E4; also called anti-cMet candidate antibody VH6/Vk0
B6: VH6/Vk2 (antibody, V domains shown)
VH: B1 VH with Q23K, G24A, S74K
VL: B1 VL with F10S, T42K, S83F
notes: CDR-grafted variant of the IgG1-based anti-cMet antibody 1E4; also called anti-cMet candidate antibody VH6/Vk2
B7: VH0/Vk2 (antibody, V domains shown)
VH: QVQLVQSGAEVKKPGESLRISCQGSGYSFPTHWITWVRQMPGKGLEWMGTIDPTDSYNFYGPSFQGHVTISADSSSSTAYLQWSSLKASDTAMYYCARDGNYYDSRGYYYDTFDMWGQGTLVTVSS
VL: B1 VL with F10S, T42K, S83F
notes: also called anti-cMet candidate antibody VH0/Vk2
B8: VH0/Vk0 (antibody, V domains shown)
VH: B7 VH
VL: B1 VL
notes: Derived from the IgG1-based 1E4 by a K to R change in the CH1 domain (G1m(3) allotype) and an S to T change in the light chain constant region (Km3 allotype); also called VMDO2 VH0/Vk0
B9: VH2/Vk2 (antibody, V domains shown)
VH: B7 VH with Q1E, R19K, Q23K, H67Q, S74K, S76I
VL: B1 VL with F10S, T42K, S83F
B10: VH2/Vk0 (antibody, V domains shown)
VH: B7 VH with Q1E, R19K, Q23K, H67Q, S74K, S76I
VL: B1 VL

Key:
[1] = molecular target: c-Met protein receptor on human umbilical vein endothelial cells (HUVEC) (human, UniProt P08581 25-1390); assay: cell-based or functional assay
[2] = molecular target: T1, human c-Met antigen (Sino Biological) (human, UniProt P08581 25-932); assay: derived from SPR KD (BIACORE T200); values fit 3.52/KD, i.e. relative to the best KD (VH5/Vk0); reference not given
T1 construct: Bought antigen used as the analyte in SPR; also called hepatocyte growth factor receptor; HGFR
Method: (§1) After combining the above variants, each combination was subjected to measurement of a binding ability (that is, affinity). Then, using BIACORE T200 (serial no. 1909913) device, BIACORE T200 Control Software V2.0.1 and BIACORE T200 Evaluation Software V3.0 (GE Healthcare, Uppsala, Sweden) analysis program, affinity of each candidate antibody to the antigen, c-Met, was determined along with a dissociation constant (KD value). After fixing the anti-cMet antibody to be analyzed on a protein ACM5 chip (GE Healthcare, Little Chalfont, UK), sensorgrams were acquired by flowing human c-Met antigen (Sino Biological, Beijing, China) at different concentrations in a range of 0.25 to 2 nM over the antibody. Based on the acquired sensorgrams, rate constants kₒₙ and koff were measured and KD value was calculated from a ratio of koff/kₒₙ. The calculated results are shown in Table 10 below, wherein 10 analyzed antibodies were listed in the order of higher affinity to lower affinity.
(§2) In order to determine a final candidate group from the above selected candidate antibodies, standards for determination were subdivided into expression level, affinity, thermal stability and biopotency, and used for comparison. Generally, considering production time and costs, the expression level among the above standards is regarded as the most important indicator. Accordingly, in first consideration of smooth antibody production, the present inventors have excluded the candidate antibodies with an expression level of less than […]. Thereafter, compared to the reference antibody (VH0/Vk0), improvement of each candidate antibody was converted into a numerical value from each of selection indexes. Then, an assay value of the candidate antibody measured from the selection index was divided by an average assay value to obtain a ratio (index 1). This index 1 was again divided by a ratio of VH0/Vk0 to obtain index 2, which in turn, is normalized (Tables 12 to 15). Further, these numerical values analyzed from four selection indexes (that is, the above indicators) were subjected to multiplying operation, and the candidate antibodies were overall compared with respect to the four selection indexes. Therefore, the finally resultant values (index 3) were listed in the order (highest first).

[3] = molecular target: T1, human c-Met antigen (Sino Biological); assay: SPR (BIACORE T200), antibody captured on protein A CM5 chip, human c-Met as analyte
Method: as §1

[4] = molecular target: T1, human c-Met antigen (Sino Biological); assay: SPR (BIACORE T200), antibody captured on protein A CM5 chip, human c-Met 0.25 to 2 nM as analyte
Method: as §1

[5] = molecular target: T1, human c-Met antigen (Sino Biological); assay: derived from SPR KD; index 1 divided by the ratio of VH0/Vk0
Method: as §1, §2

c-Met protein receptor on human umbilical vein endothelial cells (HUVEC), sequence (P08581 25-1390): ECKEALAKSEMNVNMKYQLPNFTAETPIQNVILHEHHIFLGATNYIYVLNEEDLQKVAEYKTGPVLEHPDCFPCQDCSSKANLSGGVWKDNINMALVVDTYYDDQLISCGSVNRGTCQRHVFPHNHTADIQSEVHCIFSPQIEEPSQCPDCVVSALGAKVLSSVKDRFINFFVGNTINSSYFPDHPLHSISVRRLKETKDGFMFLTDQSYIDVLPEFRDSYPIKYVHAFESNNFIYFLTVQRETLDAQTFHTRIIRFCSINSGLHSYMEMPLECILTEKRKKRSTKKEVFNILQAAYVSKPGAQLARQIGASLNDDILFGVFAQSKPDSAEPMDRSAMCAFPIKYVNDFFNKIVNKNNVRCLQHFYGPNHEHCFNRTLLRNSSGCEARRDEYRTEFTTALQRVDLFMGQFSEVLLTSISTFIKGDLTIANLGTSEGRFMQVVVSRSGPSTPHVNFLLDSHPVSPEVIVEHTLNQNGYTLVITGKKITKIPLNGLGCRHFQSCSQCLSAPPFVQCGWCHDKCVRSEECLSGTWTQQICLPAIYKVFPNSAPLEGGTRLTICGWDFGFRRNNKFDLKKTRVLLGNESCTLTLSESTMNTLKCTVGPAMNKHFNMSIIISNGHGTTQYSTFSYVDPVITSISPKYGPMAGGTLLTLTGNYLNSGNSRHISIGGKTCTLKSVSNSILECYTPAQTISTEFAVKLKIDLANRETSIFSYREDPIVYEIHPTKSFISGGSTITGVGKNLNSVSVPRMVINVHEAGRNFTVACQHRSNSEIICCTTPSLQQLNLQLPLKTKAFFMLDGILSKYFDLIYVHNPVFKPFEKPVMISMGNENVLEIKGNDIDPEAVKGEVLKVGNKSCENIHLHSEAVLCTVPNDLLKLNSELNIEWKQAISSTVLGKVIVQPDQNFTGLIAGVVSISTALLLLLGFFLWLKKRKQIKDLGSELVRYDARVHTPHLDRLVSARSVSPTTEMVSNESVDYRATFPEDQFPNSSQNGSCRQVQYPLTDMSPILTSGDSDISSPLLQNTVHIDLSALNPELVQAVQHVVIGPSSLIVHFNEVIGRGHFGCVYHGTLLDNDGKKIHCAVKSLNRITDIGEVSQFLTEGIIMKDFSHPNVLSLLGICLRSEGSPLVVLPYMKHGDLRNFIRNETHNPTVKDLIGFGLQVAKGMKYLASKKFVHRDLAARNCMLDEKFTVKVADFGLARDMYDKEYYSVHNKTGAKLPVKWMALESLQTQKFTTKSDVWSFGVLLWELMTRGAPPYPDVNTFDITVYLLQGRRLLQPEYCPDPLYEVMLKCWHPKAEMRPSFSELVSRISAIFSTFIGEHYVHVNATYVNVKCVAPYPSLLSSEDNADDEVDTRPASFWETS
T1 sequence (P08581 25-932 limits assumed): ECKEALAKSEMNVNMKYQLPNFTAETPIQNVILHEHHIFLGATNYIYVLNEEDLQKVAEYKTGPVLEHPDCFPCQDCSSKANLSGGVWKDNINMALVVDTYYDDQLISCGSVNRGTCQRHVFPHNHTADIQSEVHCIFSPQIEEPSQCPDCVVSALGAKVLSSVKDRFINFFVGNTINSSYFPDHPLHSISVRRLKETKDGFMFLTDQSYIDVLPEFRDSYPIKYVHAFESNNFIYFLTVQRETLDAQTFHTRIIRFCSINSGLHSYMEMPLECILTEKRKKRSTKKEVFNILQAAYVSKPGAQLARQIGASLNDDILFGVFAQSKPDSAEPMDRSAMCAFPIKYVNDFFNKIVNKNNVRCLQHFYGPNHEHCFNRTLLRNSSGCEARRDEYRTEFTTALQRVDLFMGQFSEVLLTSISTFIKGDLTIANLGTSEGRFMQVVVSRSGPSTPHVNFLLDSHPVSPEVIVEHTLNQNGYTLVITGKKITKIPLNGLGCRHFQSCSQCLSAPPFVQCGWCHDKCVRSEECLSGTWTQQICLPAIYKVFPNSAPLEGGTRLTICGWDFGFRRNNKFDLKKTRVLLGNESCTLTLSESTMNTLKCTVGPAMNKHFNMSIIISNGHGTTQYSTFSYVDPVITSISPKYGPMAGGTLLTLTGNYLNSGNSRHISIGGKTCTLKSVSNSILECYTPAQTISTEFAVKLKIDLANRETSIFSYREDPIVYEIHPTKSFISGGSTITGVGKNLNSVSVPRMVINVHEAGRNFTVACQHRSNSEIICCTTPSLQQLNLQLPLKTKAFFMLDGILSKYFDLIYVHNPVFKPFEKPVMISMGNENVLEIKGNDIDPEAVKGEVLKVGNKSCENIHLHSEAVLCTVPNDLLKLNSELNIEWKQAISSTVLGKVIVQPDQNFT

Row | Binder | Relative Migration (%) (HUVEC migration assay) [1] | Index 1 (affinity index from KD) [2] | Relative KD to VH0/Vk0 [3] | Kd [4] [nM] | Index 2 (affinity index normalised to VH0/Vk0) [5]
1 | B1 | 128 | 1 | 0.68 | 0.352 | 1.48
2 | B2 | 122 | 0.891 | 0.76 | 0.395 | 1.32
3 | B3 | 177 | 0.832 | 0.81 | 0.423 | 1.23
4 | B4 | 176 | 0.838 | 0.81 | 0.42 | 1.24
5 | B5 | 152 | 0.85 | 0.8 | 0.414 | 1.26
6 | B6 | 154 | 0.8 | 0.85 | 0.44 | 1.18
7 | B7 | 163 | 0.688 | 0.98 | 0.512 | 1.02
8 | B8 | 150 | 0.677 | 1 | 0.52 | 1
9 | B9 | – | – | 0.97 | 0.502 | –
10 | B10 | – | – | 1.03 | 0.534 | –
